These are literature values, as cited in publication PMC8693730.

Where two headings read alike, the source gives them in different places.

For series [1], the target named is RAP74 (Homo sapiens) (UniProt P35269).
The target is the same in series [2]. The source holds these as a separate data set.

Sequence of UniProt P35269 (P35269 2-517): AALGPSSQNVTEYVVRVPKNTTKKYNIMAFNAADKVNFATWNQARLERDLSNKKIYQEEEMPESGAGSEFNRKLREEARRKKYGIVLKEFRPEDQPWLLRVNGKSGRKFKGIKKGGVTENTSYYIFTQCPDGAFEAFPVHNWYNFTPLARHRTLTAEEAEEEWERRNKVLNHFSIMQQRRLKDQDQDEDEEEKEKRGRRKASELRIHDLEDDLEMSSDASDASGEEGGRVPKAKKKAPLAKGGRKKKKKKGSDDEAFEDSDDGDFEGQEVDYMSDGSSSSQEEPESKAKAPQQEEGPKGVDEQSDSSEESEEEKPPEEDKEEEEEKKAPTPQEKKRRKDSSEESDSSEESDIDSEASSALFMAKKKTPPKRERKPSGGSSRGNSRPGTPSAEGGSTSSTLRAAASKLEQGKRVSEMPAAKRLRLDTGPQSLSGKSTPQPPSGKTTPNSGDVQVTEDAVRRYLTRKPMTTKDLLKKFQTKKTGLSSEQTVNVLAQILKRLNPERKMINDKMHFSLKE

As for “androgen receptor NTD (from UniProt P10275)”, the equilibrium dissociation constant (Kd) – broadly, the concentration at which binding is half-saturated – was 1750 µM in the series with RAP74 (Homo sapiens) [1] and 702 µM with RAP74 (Homo sapiens) [2].
